Assay results published in the RNAGym collection of RNA variant scans (doi:10.1073/pnas.2313332121).
Variants at the floor of the assay were thinned out.

B1: TPR 5TU (parent)
chain: GGAUCUUCUCGAUCUAACAAAAAAGACAAAUCUGCCACAAAGCUUGAGAGCAUCUUCGGAUGCAGAGGCGGCAGCCUUCGGUGGCGCGAUAGCGCCAACGUUCUCAACUAUGACACGCAAAACGCGUGCUCCGUUGAAUGGAGUUUAUCAUG

Variants of: B1
Experiment: polymerase ribozyme fitness, log enrichment relative to wild type (log ratio); higher = more active; in vitro selection for triplet polymerase activity
Outline: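 Mutant libraries of each subunit of a heterodimeric triplet polymerase ribozyme were built by PCR and transcribed. Each library went through one round of in vitro selection in triplicate: annealing with biotinylated primer, partner subunit and triplets, frozen incubation at −7 °C, gel excision of extended constructs, streptavidin-bead capture and RT-PCR. Input and output libraries were Illumina-sequenced; only genotypes with ≥10 input reads and ≥1 read per output were kept. Fitness is log2(genotype enrichment/wild-type enrichment), using inverse-variance-weighted replicate averages.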

First: C18G C57A C93U U135C U145G
Second: C18A A20U C69A G88U C93G C99G U111A G124A G140C
The “polymerase ribozyme fitness (log ratio)” value of the first is higher: -3.11 for the first, no more than -4.2 for the second.

First: A17G A52G C85G
Second: A17G C51G U55A C57U G92U C103A C108A
The “polymerase ribozyme fitness (log ratio)” value of the first is higher: -2.03 for the first, no more than -4.2 for the second.

Going from A17U U101A U139G A142U to C18G A120C, the “polymerase ribozyme fitness (log ratio)” value rises from -3.82 to -1.21.

A17U G58U G74C G86A and A17G G70A C85G cannot be ordered by “polymerase ribozyme fitness (log ratio)” value: no more than -4.2 for the first, no more than -4.2 for the second.

First: C18G A21G
Second: A17G A21G C57U C96A A137U A138G
The “polymerase ribozyme fitness (log ratio)” value of the first is higher: -0.433 for the first, no more than -4.2 for the second.

Compared with C18G A20U G84U, C18G A22G A23C C69A G86U is lower in “polymerase ribozyme fitness (log ratio)” value: -3.75 for the first, no more than -4.2 for the second.

C18G A24G G50U U55A A106C C125A and A17U C32G C57A U139A cannot be ordered by “polymerase ribozyme fitness (log ratio)” value: no more than -4.2 for the first, no more than -4.2 for the second.

Compared with A17G A23G G48C A91U U104A, A17U A73U C93U A120G is higher in “polymerase ribozyme fitness (log ratio)” value: no more than -4.2 for the first, -1.86 for the second.

Going from A17U C35A C69G U78G G84A A91G C103A to A17G C18A C69G U101G C105U A120U A142U, the “polymerase ribozyme fitness (log ratio)” value rises from no more than -4.2 to -1.71.

A17G C96A A97G U101C U148C and A17G G58A G59C C69U C95U U104A are within 0.2 log units of each other in “polymerase ribozyme fitness (log ratio)” value: -3.67 for the first, -3.74 for the second.

A17G U44A A91G and A17G G84A C93A A98G C129G cannot be ordered by “polymerase ribozyme fitness (log ratio)” value: no more than -4.2 for the first, no more than -4.2 for the second.

C18G A24U C76A C95U G141A and A17G A49C G59U G92A A113G A119U are within 0.2 log units of each other in “polymerase ribozyme fitness (log ratio)” value: -3.98 for the first, -4.03 for the second.

A17G C93G C95U and C18G A23U A39G U55G A73U A89G A97U cannot be ordered by “polymerase ribozyme fitness (log ratio)” value: no more than -4.2 for the first, no more than -4.2 for the second.

First: A17G C36U C93G
Second: A17G A30G C36A C99A
The “polymerase ribozyme fitness (log ratio)” value of the first is higher: -3.8 for the first, no more than -4.2 for the second.

A17U A24U A39G C63G and A17U G25C are within 0.2 log units of each other in “polymerase ribozyme fitness (log ratio)” value: -4.15 for the first, -4.13 for the second.

First: A17U C57G C69A
Second: C18G A20C C32A A40C U53A A91G
The “polymerase ribozyme fitness (log ratio)” value of the first is higher: -2.58 for the first, no more than -4.2 for the second.

Going from A17U A21U C43U G71A C75U C93A C114U A120U U151G to A17G G48U C87U A89U A119C, the “polymerase ribozyme fitness (log ratio)” value rises from no more than -4.2 to -2.96.

Going from A17U C85G to C18G C32U C43U A89C, the “polymerase ribozyme fitness (log ratio)” value falls from -2.57 to no more than -4.2.

Compared with C18G C32G C35U G86U C105G A115C, A17G C18G U31G G68A C87U G133U is lower in “polymerase ribozyme fitness (log ratio)” value: -4 for the first, no more than -4.2 for the second.

A17U C38A U53A G74A C95U and A17G C72U G88U U102C C105G cannot be ordered by “polymerase ribozyme fitness (log ratio)” value: no more than -4.2 for the first, no more than -4.2 for the second.

A17U A20U A37U G48U C96A U101C and C18G C36G U78A C85A cannot be ordered by “polymerase ribozyme fitness (log ratio)” value: no more than -4.2 for the first, no more than -4.2 for the second.

First: A17U U56C G74U C76U G84U C125G A138C
Second: A17G A21G C96G
The “polymerase ribozyme fitness (log ratio)” value of the first is lower: no more than -4.2 for the first, 0.392 for the second.

A17G A23U U55G A66C and C18G A19U G42C G50C U90G G92U cannot be ordered by “polymerase ribozyme fitness (log ratio)” value: no more than -4.2 for the first, no more than -4.2 for the second.

Going from A17U C18U C96G C125U to C18A A19C G50U C75U A110U, the “polymerase ribozyme fitness (log ratio)” value falls from -1.1 to no more than -4.2.

Going from A17U A110U to C18G A60C G84U C125U, the “polymerase ribozyme fitness (log ratio)” value rises from no more than -4.2 to -3.76.

A17G G92A A120G A122G C125A and A17G A49C C87G C123G G141A cannot be ordered by “polymerase ribozyme fitness (log ratio)” value: no more than -4.2 for the first, no more than -4.2 for the second.

Going from C18G A52C C93G to A17G G141C, the “polymerase ribozyme fitness (log ratio)” value rises from no more than -4.2 to 0.607.

Compared with A17G A89G, C18A A23G A28C C43U A52C U146A is lower in “polymerase ribozyme fitness (log ratio)” value: -0.582 for the first, no more than -4.2 for the second.

Going from A17U C93A G94U A121U A150G to C18G A19C G88A G92U C95U U134A, the “polymerase ribozyme fitness (log ratio)” value rises from no more than -4.2 to -4.03.

Going from A17U C79U C85U A97U to A17G G100U, the “polymerase ribozyme fitness (log ratio)” value rises from no more than -4.2 to -4.01.

First: C18G A37C C93A A115G
Second: C18G C38A C69G C87U G143U U145A
The “polymerase ribozyme fitness (log ratio)” value of the first is lower: -4.01 for the first, -3.47 for the second.

First: A17G C75U C95U
Second: C18G A21G A24U A41C U53G C54G G84U G92U C93G G143C
The “polymerase ribozyme fitness (log ratio)” value of the first is higher: 0.0451 for the first, no more than -4.2 for the second.

First: A17U A30G G42U G81C C85U A122U
Second: A17G A52U G83A C95U
The “polymerase ribozyme fitness (log ratio)” value of the first is lower: no more than -4.2 for the first, -3.91 for the second.

First: A17U A20C C85U U102G C116G
Second: A17U A40C C43G A52G G92C G128C
The “polymerase ribozyme fitness (log ratio)” value of the first is higher: -3.83 for the first, no more than -4.2 for the second.

Compared with A17G C96A A119U, A17U A26C G62U U78G G100A G152U is lower in “polymerase ribozyme fitness (log ratio)” value: -0.596 for the first, no more than -4.2 for the second.

A17G A23U A26U C116G A138C A142C and C18A A29U G136A cannot be ordered by “polymerase ribozyme fitness (log ratio)” value: no more than -4.2 for the first, no more than -4.2 for the second.

Going from A17U A40C G58C C76U G84U U144G to C18G A26U C96A, the “polymerase ribozyme fitness (log ratio)” value falls from -0.372 to -2.84.

Going from A17G A20C A30G G46A G59U G67C G68U G70U C96G to A17G C93A, the “polymerase ribozyme fitness (log ratio)” value rises from no more than -4.2 to -2.46.

Going from A17G C93G to A17G C93U, the “polymerase ribozyme fitness (log ratio)” value rises from -2.89 to -0.578.

A17G A23C A97U C114U and A17U C36G U61A C76G C103U A119U G141C cannot be ordered by “polymerase ribozyme fitness (log ratio)” value: no more than -4.2 for the first, no more than -4.2 for the second.

First: A17G G86A
Second: A17U G42U C99A C105U A120U
The “polymerase ribozyme fitness (log ratio)” value of the first is higher: -0.889 for the first, no more than -4.2 for the second.

Going from C18G A29C C35A A89U G128A U144G to A17G G83U U134A, the “polymerase ribozyme fitness (log ratio)” value rises from no more than -4.2 to -2.39.
